According to PMC6719045, “Analysis of IFITM-IFITM Interactions by a Flow Cytometry-Based FRET Assay” (International Journal of Molecular Sciences, 2019):

Target: T1, IFITM3-wt fused to SCFP or SYFP (interferon-induced transmembrane protein 3) (UniProt Q01628 1-133)
T1 construct: interferon-induced transmembrane protein 3 (IFITM3), wild type; One molecule stands for both FRET copies (SCFP3A fusion and SYFP2 fusion); also called SxFP-IFITM3; IFTIM3; source: 293T, transiently transfected, in cells; not shown: SCFP3A or SYFP2, N-terminal, kept
Experiment: FRET or BRET; FACS-FRET in 293T cells at 48 h post transfection with titrated amounts of plasmids, total DNA kept constant with empty pCAGGS (Figure 2D)
Conditions: partners not purified

T1 sequence (Q01628 whole entry, the tested form may be a part): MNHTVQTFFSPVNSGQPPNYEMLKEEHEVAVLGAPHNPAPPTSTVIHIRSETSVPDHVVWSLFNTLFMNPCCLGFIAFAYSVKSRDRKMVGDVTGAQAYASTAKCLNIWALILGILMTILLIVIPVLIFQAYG

B1: IFITM1 fused to SCFP or SYFP (interferon-induced transmembrane protein 1) (natural protein, UniProt P13164 1-125, looked up)
chain: MHKEEHEVAVLGPPPSTILPRSTVINIHSETSVPDHVVWSLFNTLFLNWCCLGFIAFAYSVKSRDRKMVGDVTGAQAYASTAKCLNIWALILGILMTIGFILLLVFGSVTVYHIMLQIIQEKRGY
notes: interferon-induced transmembrane protein 1 (IFITM1); One molecule stands for both FRET copies: one carries SCFP3A (donor), the other SYFP2 (acceptor); also called SCFP3A-IFITM1; SYFP2-IFITM1; source: 293T, transiently transfected, in cells; not shown: SCFP3A or SYFP2, N-terminal, kept
- percent of FRET-positive cells: ~20%
